Measurements reported in patent publication US20140056903A1 (Regeneron, published 2014).
Residue numbers refer to the chain shown, from its start. Numbers in names are those of the source.

T1: monkey GFRα3 expressed with a C-terminal myc-myc-hexahistidine tag (monkey (Mf), UniProt O60609 32-374 (human entry), limits assumed)
T1 construct: also called MfGFRα3-mmh; MfGFRα3-mmH
T1 chain: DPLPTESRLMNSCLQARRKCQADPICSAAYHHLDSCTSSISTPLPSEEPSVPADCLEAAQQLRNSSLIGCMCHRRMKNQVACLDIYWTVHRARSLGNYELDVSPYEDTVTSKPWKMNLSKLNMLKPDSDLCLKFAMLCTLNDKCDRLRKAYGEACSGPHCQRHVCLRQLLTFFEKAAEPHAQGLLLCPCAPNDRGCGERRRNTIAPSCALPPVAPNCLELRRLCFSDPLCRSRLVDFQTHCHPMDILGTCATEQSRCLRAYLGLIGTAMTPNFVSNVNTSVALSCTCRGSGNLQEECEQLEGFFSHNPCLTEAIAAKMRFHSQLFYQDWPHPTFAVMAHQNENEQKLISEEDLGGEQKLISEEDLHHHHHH

T2: human GFRα3 expressed with a C-terminal mFc tag (human)
T2 construct: also called hGFRα3-mFc
T2 chain: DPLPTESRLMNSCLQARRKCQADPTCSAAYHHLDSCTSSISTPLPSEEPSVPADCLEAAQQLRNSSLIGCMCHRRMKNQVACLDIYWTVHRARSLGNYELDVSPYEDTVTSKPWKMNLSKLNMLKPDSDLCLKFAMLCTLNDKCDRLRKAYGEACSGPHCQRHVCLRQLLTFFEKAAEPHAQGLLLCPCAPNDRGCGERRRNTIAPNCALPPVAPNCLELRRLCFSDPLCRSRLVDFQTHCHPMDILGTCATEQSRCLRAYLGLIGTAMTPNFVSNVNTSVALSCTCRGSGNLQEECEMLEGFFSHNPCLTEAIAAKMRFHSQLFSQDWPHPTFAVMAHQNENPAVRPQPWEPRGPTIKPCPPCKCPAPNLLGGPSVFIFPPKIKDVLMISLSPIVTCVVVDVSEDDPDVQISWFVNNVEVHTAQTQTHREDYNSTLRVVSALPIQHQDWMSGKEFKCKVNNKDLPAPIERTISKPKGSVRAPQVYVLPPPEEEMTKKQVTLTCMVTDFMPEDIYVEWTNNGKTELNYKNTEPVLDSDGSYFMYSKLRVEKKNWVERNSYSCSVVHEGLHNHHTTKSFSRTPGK

B1: H4H2212N (antibody, human IgG4, V domains shown)
VH: EVQLLESGGGLVQPGGSLRLSCAASGFTFSSYAMSWVRQGPGKGLEWVSGISGSGGSTYNADSVKGRFTISRDNSKNTLYLQMNSLRAEDTAVYYCAKDSGTYWYYFDYWGQGILVTVSS
VL: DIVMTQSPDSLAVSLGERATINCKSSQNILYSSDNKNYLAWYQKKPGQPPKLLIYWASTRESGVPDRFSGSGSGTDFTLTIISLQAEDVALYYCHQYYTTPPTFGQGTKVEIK
notes: human IgG4 Fc (H4H)
B2: H4H2236N3 (antibody, human IgG4, V domains shown)
VH: EVQLLESGGNLVQPGGSLRLSCAASGFTFSSYAMTWVRQAPGKGLEWVSTISGSGTSTYYADSVKGRFTISRDNSRDTVFLQMNSLRAEDTAVYYCSKPSALRFLHWLAMDVWGQGTLVTVSS
VL: DIQMTQSPSSLSAFVGDRVTITCRASQDIRNYLDWFQQKPGKAPKSLIYAASNLQSGVPSRFGGSGSGTDFTLTINSLQPEDFVTYYCQQYNSYPPTFGGGTKVEIK
notes: human IgG4 Fc (H4H)
B3: H4H2243N2 (antibody, human IgG4, V domains shown)
VH: QVQLVQSGAEVKKPGASVKVSCKASGYTFTSYGIIWVRQAPGQGLEWMGWISGYNGNTNYAQNLQGRVTMTTDTSTTTAYMELRSLRSDDTAVYYCARWGIATRPYYYYGMDVWGQGTTVTVSS
VL: B2 VL with F14S, R30T, D34A, N53S, R61K, G63S, N76S, V84A, G100P, E105D
notes: human IgG4 Fc (H4H)
B4: H4H2364S (antibody, human IgG4, V domains shown)
VH: EVQLVESGGGLEQPGGSLRLSCAASGFTFSSYVMSWVRQVPGKGLEWVSVISGSGGSTYYADSVKGRFTISRDNSKNTLYLQMNSLRAEDTAVYYCAKPSSYSSSNFHYGMDVWGQGTTVTVSS
VL: DIQMTQSPYSVSASVGDRVTITCRASQGISSWLAWYQQKPGRAPKLLIYAASSLQSGVPSRFSGSGSGTDFTLTISSLQPEDFATYYCQKTNSFPFTFGPGTKVEIK
notes: human IgG4 Fc (H4H)
B5: H4H2341S (antibody, human IgG4, V domains shown)
VH: EVQLVESGAEVKKSGSSVKVSCKASGGTFSRYAISWVRQAPGQGLEWMGGIIPLFGTLNYAQKFQGRVTLTTDESTSTAYMELSSLRSEDTAVYYCAVFYYGSGSYRNWFDPWGQGTLVTVSS
VL: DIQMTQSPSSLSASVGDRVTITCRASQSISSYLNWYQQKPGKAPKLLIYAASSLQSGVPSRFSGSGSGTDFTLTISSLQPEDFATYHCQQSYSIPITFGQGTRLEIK
notes: human IgG4 Fc (H4H)
B6: H4H2344S (antibody, human IgG4, V domains shown)
VH: EVQLVESGGGVVQPGRSLRLSCAASGFSFSDYVMHWVRQAPGKGLEWVASIWFDGSNEFYADSVKGRFTISRDNSKNTLFLQMNSLRAEDTAVYYCAKKGVLVATSAFDIWGQGTMVTVSS
VL: DIQMTQSPSSLSASVGDRVTITCRASQSINNYLNWYHQKPGKAPKLLIYAASSLQSGVPSRFSGSGSGTDYTLTISSLQPEDFGNYYCQQSYRTSMYTFGQGTKVEIK
notes: human IgG4 Fc (H4H)
B7: H4H2293P (antibody, human IgG4, V domains shown)
VH: B6 VH with E1Q, F59L, D109H
VL: B6 VL with D1A, S28N, K45N, R93S, V105L
notes: human IgG4 Fc (H4H)
B8: H4H2346S (antibody, human IgG4, V domains shown)
VH: B6 VH with E1Q
VL: B6 VL with D1E, Q3V
notes: human IgG4 Fc (H4H)
B9: H4H2354S (antibody, human IgG4, V domains shown)
VH: B6 VH with E1Q
VL: B6 VL with M4L
notes: human IgG4 Fc (H4H); also called H4H2354S-1
B10: H4H2345S (antibody, human IgG4, V domains shown)
VH: EVQLVESGGGLVRPGRSLRLSCAASGFTFDNYAMHWVRQVPGKGLEWVSGITWNSVSLGYADSVKGRFTISRDNAQNSLYLQMNSLRTVDTALYYCAKDRWGGSYYFDFWGQGTLVTVSS
VL: DIVMTQSPSSLSASVGDRVTITCRASQGISNYLAWYQQKPGKVPKLLIYSASTLQSGVPSRFSGSGSGTDFTLTISNLQPEDFATFFCQKYNSAPTFGGGTKVEIK
notes: human IgG4 Fc (H4H)

Target: T3, human GFRα3 expressed with a C-terminal myc-myc-hexahistidine tag (human, UniProt O60609 32-374, biotinylated (sites not given) in ELISA format 2 and in the Octet cross-competition; not in SPR)
T3 construct: also called hGFRα3-mmh; hGFRα3-mmH
Experiment: Octet cross-competition; biotin-hGFRα3-mmH pre-saturated with first antibody H4H2295S
Description: (§1) A cross-competition assay was conducted to assess the ability of select antibodies to compete with one another for binding to human GFRα3 using an Octet RED384 biosensor (Fortebio Inc.). The entire experiment was performed at 25° C. with the flow rate of 1000 rpm in Octet HBST buffer (0.01 M HEPES pH7.4, 0.15M NaCl, 3 mM EDTA, 0.05% v/v Surfactant P20, 0.1 mg/mL BSA). To assess whether 2 antibodies were able to compete with one another for binding to their respective epitopes on biotinylated recombinant human GFRα3 expressed with a C-terminal myc-myc-hexahistidine tag (biotin-hGFRα3-mmH; SEQ ID:370), around ˜1.2 nm of biotin-hGFRα3-mmH was first captured onto streptavidin-coated Octet sensor tips (Fortebio Inc, #18-5019) by submerging the tips for 1 minute into a 10 μg/mL solution of biotin-hGFRα3-mmH. The antigen coated sensor tips were then placed into wells containing 25 μg/mL solution of a first anti-GFRα3 monoclonal antibody for 4 minutes to saturate the biotin-hGFRα3-mmH surface. The sensor tips were then subsequently dipped into wells containing 25 μ/mL solution of a second anti-GFRα3 monoclonal antibody. The sensor tips were washed in Octet HBST buffer in between every step of the experiment. The real-time binding response was monitored during the course of the experiment and the binding response at the end of every step was recorded as shown in FIG. 9. The response of mAb-2 binding to biotin-hGFRα3-mmH pre-complexed with the first antibody was compared and competitive/non-competitive behavior of different anti-GFRα3 monoclonal antibodies was determined.

binding response of second antibody (nm)	Binder
1.81	B1
0.01	B2
0.01	B3

Target: T1, monkey GFRα3 expressed with a …
Experiment: SPR, Ab captured, 37C
Description: (§2) Antibodies were tested for binding to human GFRα3 expressed with either a C-terminal myc-myc-hexahistidine tag (hGFRα3-mmh; SEQ ID: 370, a C-terminal hFc tag (hGFRα3-hFc; SEQ ID:371), or a C-terminal mFc tag (hGFRα3-mFc; SEQ ID:372), as well as monkey GFRα3 expressed with a C-terminal myc-myc-hexahistidine tag (MfGFRα3-mmh; SEQ ID:373). Anti-GFRα3 antibodies were captured on either a goat anti-mouse IgG polyclonal antibody (GE Healthcare, #BR-1008-38) or a mouse anti-human IgG monoclonal antibody (GE Healthcare, #BR-1008-39) surface created through direct amine coupling to a Biacore CM5 sensor chip. Kinetic experiments were carried out using HBS-EP (10 mM HEPES, 150 mM NaCl, 3 mM EDTA, 0.05% Surfactant P20, at pH 7.4) or PBS buffer containing 0.05% v/v surfactant P20 as both the running buffer and the sample buffer. Binding to human GFRα3-mmh or monkey GFRα3-mmh was evaluated by injecting several concentrations ranging from 200 to 7.4 nM (3-fold dilutions) across the captured antibody surface. Binding to human GFRα3-mFc or human GFRα3-hFc was evaluated by injecting several concentrations ranging from 100 to 3.7 nM (3-fold dilutions) across the captured antibody surface. Antibody-antigen association was monitored for up to 4 minutes, while dissociation in buffer was monitored for up to 20 minutes. Kinetic association (kₐ) and dissociation (kd) rate constants were determined by processing and fitting the data to a 1:1 binding model using Scrubber 2.0c curve fitting software. Binding dissociation equilibrium constants (KD) and dissociative half-lives (t_{1/2}) were calculated from the kinetic rate constants as: KD (M)=kd/kₐ and t_{1/2} (min)=[ln 2/(60*kd)].

Kd [nM]	koff [s⁻¹]	kon [M⁻¹ s⁻¹]	t1/2 [h]	Binder
5.14	0.000861	168000	0.217	B4
3.53	0.000508	144000	0.383	B5
3.57	0.000575	161000	0.333	B6
0.358	0.000158	441000	1.22	B7
3.34	0.000511	153000	0.383	B8
2.78	0.000435	157000	0.45	B9
26.3	0.00353	134000	0.05	B10

Target: T2, human GFRα3 expressed with a C-terminal …
Experiment: SPR, Ab captured, 37C
Description: as §2

Kd [nM]	koff [s⁻¹]	kon [M⁻¹ s⁻¹]	t1/2 [h]	Binder
0.0328	4.14e-05	1.26e+06	4.65	B4
0.0789	7.58e-05	961000	2.53	B5
0.0891	8.96e-05	1.01e+06	2.15	B6
0.0299	5.13e-05	1.71e+06	3.75	B7
0.0781	0.000137	1.75e+06	1.4	B8
0.0895	9.11e-05	1.02e+06	2.12	B9
0.106	7.44e-05	700000	2.58	B10

Target: T3, human GFRα3 expressed with a C-terminal …
Experiment: Octet cross-competition; biotin-hGFRα3-mmH pre-saturated with first antibody H4H2294S
Description: as §1

binding response of second antibody (nm)	Binder
1.92	B1
0.05	B2
0.03	B3

Target: T3, human GFRα3 expressed with a C-terminal …
Experiment: Octet RED384; 25 µg/mL first antibody on streptavidin-captured biotin-hGFRα3-mmH
Description: as §1

Amount of Antibody 1 bound (nm)	Binder
2.32	B1
2.64	B2
2.42	B3
